Reference: patent publication US20130156764A1, “NEUTRALIZATION OF FLT3 LIGAND AS A LEUKEMIA THERAPY” (The Johns Hopkins University, priority 2010, published 2013)

Tests used:
[1] = test system: BaF3/ITD and BaF3/TKD cells; assay: Survival (MTT, trypan blue) of BaF3/ITD and BaF3/TKD cells with FL; type: cell-based; conditions: serum-free, 4 days
Procedure: (§1) 2×10^4 cells in 100 μl serum-free medium were plated into triplicate wells of 96-well plates. Survival was assessed by MTT assay (Roche, Indianapolis, Ind.) and viable cell number counting by trypan blue (GIBCO, Rockville, Md.) exclusion according to the manufacturer's instructions.
BaF3 is another cell line lacking expression of endogenous FLT3. BaF3 cells transfected with mutant forms of FLT3 were starved in serum-free medium for 16 hours and washed with PBS before FL stimulation. […] Changes of other FLT3 downstream signals were not observed. An MTT survival assay was performed in BaF3/ITD and BaF3/TKD cells cultured in serum-free medium in the presence and absence of FL for 4 days. […] The effect was also confirmed by counting viable cell numbers by trypan blue exclusion (FIG. 13C, P<0.05). These findings indicate that FL stimulation prolongs the survival of cells expressing FLT3 mutants.

[2] = test system: MV411 cells; assay: Survival (MTT) of MV411 cells with FL; type: cell-based, human; conditions: MV411, serum-free, 4 days
Procedure: as §1
The MV411 cell line is a human leukemia-derived cell line expressing a FLT3/ITD mutation and has lost the wild-type allele. […] MV411 cells express endogenous FL that might diminish the degree of the effect of exogenous FL on FLT3/ITD mutant receptor. To evaluate the effect of FL on the survival of MV411 cells, MV411 cells were cultured in serum-free medium in the presence and absence of FL for 4 days.

[3] = test system: primary AML blasts expressing homozygous FLT3/ITD mutations; assay: Survival (MTT) of primary AML blasts with FL; type: cell-based, human; conditions: complete medium, 4 days
Procedure: as §1
To study whether further activation of mutant FLT3 receptors in response to FL also occurs in primary cells, experiments were carried on primary AML blasts expressing homozygous FLT3/ITD mutations (i.e., no detectable wild type FLT3 by PCR). The blasts were stimulated with 100 ng/mL FL. […] The survival of AML blasts was assessed by culturing them in complete medium with and without FL for 4 days.

[4] = test system: FL−/− primary hematopoietic progenitor cells expressing FLT3/ITD or FLT3/TKD; assay: Colony-replating assay of FL−/− bone marrow progenitors transduced with FLT3 mutants, with FL; type: cell-based, mice
Description: Bone marrow was harvested from FL^−/− mice, lineage depleted (Lineage Cell Depletion kit; Militenyibi Biotec, Auburn Calif.), and transduced with EF1-ITD-UBC-GFP, EF1-TKD-UBC-GFP, or EF1-UBC-GFP lentivirus by 3 rounds of spin-infection on days 1, 2 and 3. The EF1-ITD-UBC-GFP vector was constructed by inserting full-length FLT3/ITD in EF1-UBC-GFP lentiviral vector. The EF1-TKD-UBC-GFP was constructed by inserting wtFLT3 into the EF1-UBC-GFP followed by mutagenesis of wtFLT3 to substitute nucleotide G of D835 with T resulting in an Aspartic acid to Tyrosine change (QuickChange Site-Directed Mutagenesis Kit; Stratagene, La Jolla, Calif.). GFP positive cells were then sorted by FACS. 10^3 cells were plated into triplicate 35 mm Petri dishes (Nunc) in 1 ml of Methocult M3434 (StemCell Technologies Inc., Vancouver) containing 50 ng/mL rm SCF, 10 ng/mL rm IL-3, 10 ng/mL rh IL-6, and 3 units/mL rh Erythropoietin. Cultures were incubated at 37° C. in a humidified atmosphere of 5% CO2, and colonies consisting of >35 cells were scored after 9-11 days. For the colony-replating assay all cells from the previous culture were collected and re-plated at 1×10^4 cells/plate in fresh methylcellulose medium. All cells were replated three times.
To evaluate the effect of FL stimulation on primary hematopoietic progenitor cells expressing FLT3 mutants, lineage negative progenitors were harvested from FL^−/− mice and transduced with FLT3/ITD-GFP, FLT3/TKD-GFP, or GFP control lentivirus. GFP-positive cells were selected by FACS, cultured in methylcellulose with and without FL, and the colony numbers were counted after 9 days.
After colonies were counted, all of the cells in each culture dish were harvested from the methylcellulose, washed and re-plated in fresh methylcellulose medium to examine their potential to form colonies upon secondary plating; this process was repeated for two more passages to determine the frequency of tertiary and quaternary colonies. […]

B1: FL: Recombinant human FL (fms-related tyrosine kinase ligand) purchased from PeproTech; SEQ ID NO: 1 (protein, listed as Homo sapiens)
chain: MTVLAPAWSPTTYLLLLLLLSSGLSGTQDCSFQHSPISSDFAVKIRELSDYLLQDYPVTVASNLQDEELCGGLWRLVLAQRWMERLKTVAGSKMQGLLERVNTEIHFVTKCAFQPPPSCLRFVQTNISRLLQETSEQLVALKPWITRQNFSRCLELQCQPDSSTLPPPWSPRPLEATAPTAPQPPLLLLLLLPVGLLLLAAAWCLHWQRTRRRTPRPGEQVPPVPSPQDLLLVEH
- survival (MTT, confirmed by trypan blue) [1]: increased survival
- survival [2]: prolonged survival
- patient samples with increased survival of AML blasts [3]: three of four
- number of first-generation colonies ([4]; BM cells transduced with FLT3 mutants, 9 days): slightly increased
- re-plating activity upon serial passages ([4]; BM cells transduced with FLT3 mutants, cultured in presence of FL): retained their re-plating activity
- colony size ([4]; FL−/− BM cells expressing FLT3 mutants stimulated with FL): significant increase in colony size
